One may read the EC50 as the concentration giving half of the maximal effect. A high value points to a need for much substance. As a reminder, the Kd is a measure of binding affinity in units of concentration. A higher Kd goes with weaker binding. What is called koff is the first-order rate constant of dissociation. As usually defined, the kon is the second-order rate constant of association. Read a high kon as fast association.

The target of assay [1] is T1, IL-33 protein without any mutation (WT) (human, UniProt O95760 112-270).
T1 construct: Control of the alanine scan (four runs WT-1 to WT-4); also called WT-1; WT-2
T1 sequence: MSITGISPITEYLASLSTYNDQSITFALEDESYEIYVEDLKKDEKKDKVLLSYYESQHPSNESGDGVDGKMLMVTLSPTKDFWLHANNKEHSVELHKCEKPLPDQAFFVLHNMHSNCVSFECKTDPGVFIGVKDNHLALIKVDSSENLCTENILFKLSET
Nature of the assay: ELISA as Example 9; row WT-1. As for the experimental part: (§1) SA protein was diluted to 2 μg/mL to coat ELISA plate at 100 μL/well overnight at 4° C. The plate was washed with PBST (PBS containing 0.05% Tween20) for 3 times, and blocked with 2% BSA prepared in PBS at 200 μL/well, at room temperature for 2 h. After the plate was washed twice with PBST, IL-33-his-biotin protein was diluted to 1 μg/mL with 1% BSA prepared in PBST, and was added to ELISA plate at 100 μL/well. The plate was incubated at room temperature for 1 h, and each monoclonal antibody was diluted with 1% BSA prepared in PBST in a 3-fold gradient. The highest concentration of antibody was 10 μg/mL, and the antibody was diluted for 12 gradients. Each diluted monoclonal antibody was added to ELISA wells with 100 μL/well, and the plate was incubated at room temperature for 1 h. Each sample was added to duplicate wells in parallel. The plate was washed with PBST for 3 times, and HRP-anti human IgG Fc secondary antibody prepared with PBST was diluted at an appropriate ratio, and was added to ELISA wells at 100 μL/well. […] Each reaction solution was shaken uniformly and OD450 nm was read on a microplate reader. The data was analyzed and EC₅₀ was calculated.
(§2) Subsequently, according to the experimental method of Example 9, the affinity of the above mutant proteins to 874F7-Hu1 was determined, and IL-33 proteins (WT-1, WT-2, WT-3, and WT-4) without any mutation were set as controls.

For assay [2], the target named is T1, IL-33 protein without any mutation (WT). Nature of the assay: ELISA as Example 9; row WT-3. On the procedure:
as §1, §2
In general terms: In an ELISA, binding on a coated surface is turned into a signal by an enzyme label.

Assay [3] addresses T2, IL-33 mutant protein D68A (human, UniProt O95760 112-270).
T2 construct: Prokaryotic expression
T2 chain: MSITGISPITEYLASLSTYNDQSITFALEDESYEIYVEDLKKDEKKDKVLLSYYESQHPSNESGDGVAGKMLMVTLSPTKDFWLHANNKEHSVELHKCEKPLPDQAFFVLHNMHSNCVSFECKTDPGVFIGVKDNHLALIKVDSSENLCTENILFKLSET
Description: ELISA as Example 9; row D68A against WT-3. On the procedure: as §1, §2

In assay [4] the target is T3, IL-33 mutant protein K46A (human, UniProt O95760 112-270).
T3 construct: Prokaryotic expression
T3 chain: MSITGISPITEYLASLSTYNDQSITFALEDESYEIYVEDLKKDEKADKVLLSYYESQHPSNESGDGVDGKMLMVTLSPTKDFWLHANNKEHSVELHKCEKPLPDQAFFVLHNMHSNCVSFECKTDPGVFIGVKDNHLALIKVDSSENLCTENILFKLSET
Description: ELISA as Example 9; row K46A against WT-1. On the procedure:
as §1, §2

In assay [5] the target is T4, Human IL-33-his (human, UniProt O95760 112-270, biotinylated with EZ-Link NHS-Biotin where used as IL-33-his-biotin).
T4 construct: Used plain (SPR, cell assays) and biotinylated (ELISA); also called IL-33-his-biotin
T4 sequence: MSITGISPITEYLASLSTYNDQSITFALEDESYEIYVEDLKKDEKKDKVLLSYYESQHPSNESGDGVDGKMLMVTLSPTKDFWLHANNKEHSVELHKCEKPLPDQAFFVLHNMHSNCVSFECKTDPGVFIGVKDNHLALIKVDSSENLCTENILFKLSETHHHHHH
Nature of the assay: SPR Biacore 8K as Example 14, antibody captured, antigen as analyte. On the procedure:
(§3) A chip with covalently coupled Protein A/G (purchased from GE Healthcare, catalog number BR-1005-30) was used to capture each antibody to be tested, and the relevant operating parameters were as follows: The antibody concentration was […], the contact time was 75 s, the flow rate was […], and the regeneration contact time was 30 s. The IL-33-his antigen was diluted with HBS-EP pH7.4 buffer solution (purchased from GE Healthcare, catalog number BR-1006-69). The maximum concentration was 50 nM, and diluted to 0.39 nM by two-fold dilution. Duplicate wells and 0 concentration point well were set, and 6M guanidine hydrochloride solution was used as the regeneration buffer. The sample was injected on Biacore 8K according to the following parameters, the binding time was 180 s, the dissociation time was 900 s, the flow rate was 30 μL/min, and the regeneration contact time was 30 s. After running, Biacore 8K Evaluation Software was used to analyze the data according to the “1:1 binding kinetics model”, and the binding kinetics parameters of each antibody to IL-33 were obtained.
(§4) The experimental methods were referred to Example 14, in which the antigens cynomolgus IL-33 protein (purchased from Sino catalog number 90912-CNAE) and mouse IL-33 protein (purchased from R&D, 3626-ML-010/CF) were used, and human IL-33 protein was used as the control. Both 864F3-Hu4 and 874F7-Hu1 cross-react with cynomolgus IL-33 protein, and are consistent with the characteristics of each antibody binding to human IL-33 protein.

Assay [6] addresses T5, Cynomolgus IL-33-his (cynomolgus, UniProt A0A2K5W3I1 112-269, biotinylated in the ELISA of Example 6).
T5 construct: Bought protein; also called cynomolgus IL-33 protein; Cynomolgus monkeys IL-33
T5 sequence: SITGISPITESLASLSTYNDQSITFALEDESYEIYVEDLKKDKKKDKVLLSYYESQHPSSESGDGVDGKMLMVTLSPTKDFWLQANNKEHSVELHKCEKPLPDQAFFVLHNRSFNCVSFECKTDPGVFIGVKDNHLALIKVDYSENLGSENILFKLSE
The assay is described as above. On the procedure: as §3, §4

In assay [7] the target is T6, Mouse IL-33 protein (mouse, UniProt Q8BVZ5 109-266).
T6 construct: Bought protein
T6 sequence (looked up): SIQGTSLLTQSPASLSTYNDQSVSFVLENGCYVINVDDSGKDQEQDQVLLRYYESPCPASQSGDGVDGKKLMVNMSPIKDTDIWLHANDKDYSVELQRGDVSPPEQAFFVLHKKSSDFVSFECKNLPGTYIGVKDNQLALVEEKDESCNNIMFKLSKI
The assay is described as above. As for the experimental part:
as §3, §4

B1: 874F7-Hu1 (antibody, human IgG4 S228P, kappa)
heavy: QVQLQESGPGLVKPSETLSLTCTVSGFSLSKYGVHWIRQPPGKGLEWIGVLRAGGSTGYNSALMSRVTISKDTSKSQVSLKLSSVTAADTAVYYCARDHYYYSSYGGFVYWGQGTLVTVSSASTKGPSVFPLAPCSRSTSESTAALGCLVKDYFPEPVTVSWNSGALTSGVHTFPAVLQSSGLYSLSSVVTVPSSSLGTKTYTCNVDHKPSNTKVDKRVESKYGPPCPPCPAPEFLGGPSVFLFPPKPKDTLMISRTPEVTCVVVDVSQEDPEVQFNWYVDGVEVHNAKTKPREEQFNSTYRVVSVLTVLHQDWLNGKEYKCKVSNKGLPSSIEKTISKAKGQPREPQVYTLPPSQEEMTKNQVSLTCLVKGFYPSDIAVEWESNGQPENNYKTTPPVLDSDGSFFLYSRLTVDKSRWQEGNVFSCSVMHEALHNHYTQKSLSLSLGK
light: DIQMTQSPSSVSASVGDRVTITCLASQTIGAWLAWYQQKPGKSPKLLIYAATRLADGVPSRFSGSGSGTDFTLTISSLQPEDFATYYCQQLDSSPYTFGQGTKVEIKRTVAAPSVFIFPPSDEQLKSGTASVVCLLNNFYPREAKVQWKVDNALQSGNSQESVTEQDSKDSTYSLSSTLTLSKADYEKHKVYACEVTHQGLSSPVTKSFNRGEC
notes: also called 874F7-Hul; humanized antibody 874F7-Hu1
With B1, the EC50 amounted to 0.23 nM in assay [1] and 0.18 nM in assay [2]. Moreover, the Affinity decline ratio in assay [3] came out at 1.2 fold; in assay [4] it was 1 fold. Moreover, the values for the dissociation constant Kd in assay [5], in assay [6] and in assay [7] were 1.13 nM, 1.27 nM and 33.2 nM, respectively. In addition, the koff amounted to 0.000204 s⁻¹ in assay [5], 0.000349 s⁻¹ in assay [6] and 0.00212 s⁻¹ in assay [7]. For the same molecule, the kon in assay [5] came to 180000 M⁻¹ s⁻¹; in assay [6], 273000 M⁻¹ s⁻¹; in assay [7], 64000 M⁻¹ s⁻¹.
